US20140087995A1 (published 2014)
Numbered stars: 1 amine (or outer) side, 2 acyl side, 3 side chain; on linkers, the order of the positions; unused ones are H or OH. Bridge positions count the residues as written; N and C are the ends. Side chains are listed from the residue outwards. Ends that are not written are not given here. * marks the point of attachment. C20 diacid = O=C(O)CCCCCCCCCCCCCCCCCCC(=O)*; γGlu = O=C(O)[C@H](CCC(=O)[*:2])N[*:1]

T1: rat amylin receptor (rat calcitonin receptor + rat RAMP 3) (rat, UniProt P32214 25-516; Q9JJ73 23-147)
T1 construct: whole, on cells; also called rAmylin-R; rat amylin 3(a) receptor
T1 sequence (looked up) 1: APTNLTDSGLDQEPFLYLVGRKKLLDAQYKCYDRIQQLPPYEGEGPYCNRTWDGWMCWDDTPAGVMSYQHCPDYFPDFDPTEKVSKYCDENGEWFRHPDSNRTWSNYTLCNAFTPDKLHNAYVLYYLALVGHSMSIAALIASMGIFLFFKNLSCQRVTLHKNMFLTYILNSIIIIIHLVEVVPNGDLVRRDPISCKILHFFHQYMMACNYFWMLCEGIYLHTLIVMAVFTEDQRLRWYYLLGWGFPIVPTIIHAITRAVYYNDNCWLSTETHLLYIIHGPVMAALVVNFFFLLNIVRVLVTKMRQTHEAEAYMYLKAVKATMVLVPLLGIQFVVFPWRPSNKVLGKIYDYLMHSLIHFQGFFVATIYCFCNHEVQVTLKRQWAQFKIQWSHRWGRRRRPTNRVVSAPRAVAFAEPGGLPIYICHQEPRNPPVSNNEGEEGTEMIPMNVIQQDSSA
T1 sequence (looked up) 2: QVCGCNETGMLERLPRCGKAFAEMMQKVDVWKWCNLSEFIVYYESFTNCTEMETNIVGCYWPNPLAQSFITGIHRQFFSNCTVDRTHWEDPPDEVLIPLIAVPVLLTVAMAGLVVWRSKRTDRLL

T2: human calcitonin receptor (human, UniProt P30988 25-474)
T2 construct: whole, on cells; also called hCTR; hCT
T2 sequence (looked up): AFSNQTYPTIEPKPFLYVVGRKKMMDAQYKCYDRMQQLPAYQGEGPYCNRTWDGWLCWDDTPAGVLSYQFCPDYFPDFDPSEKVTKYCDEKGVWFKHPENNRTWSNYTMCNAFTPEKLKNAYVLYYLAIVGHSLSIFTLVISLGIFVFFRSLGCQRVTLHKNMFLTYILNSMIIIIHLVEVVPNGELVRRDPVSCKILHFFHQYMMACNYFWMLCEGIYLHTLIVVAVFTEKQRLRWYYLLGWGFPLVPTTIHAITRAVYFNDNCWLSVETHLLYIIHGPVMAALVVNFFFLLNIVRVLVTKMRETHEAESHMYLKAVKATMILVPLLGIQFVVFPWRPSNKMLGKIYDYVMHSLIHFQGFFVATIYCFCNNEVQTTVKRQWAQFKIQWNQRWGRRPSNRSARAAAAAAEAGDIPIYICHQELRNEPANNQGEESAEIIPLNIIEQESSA

T3: rat calcitonin receptor (rat, UniProt P32214 25-516)
T3 construct: whole, on cells; also called rCTR; rat calcitonin (a) receptor
T3 sequence (looked up): T1 sequence (looked up) 1

B1: N^ε1-[(4S)-4-carboxy-4-(19-carboxynonadecanoylamino)butanoyl]-[Glu14,Arg17,Pro21,Pro27,Arg35]-h-amylin (peptide)
peptide: K([γGlu-C20 diacid])CNTATCATQRLAEFLRHSSPNFGAIPSSTNVGSRTY-NH2
modifications: disulfide 2-7; N-terminus assumed
SMILES: CC[C@H](C)[C@H](NC(=O)[C@H](C)NC(=O)CNC(=O)[C@H](Cc1ccccc1)NC(=O)[C@H](CC(N)=O)NC(=O)[C@@H]1CCCN1C(=O)[C@H](CO)NC(=O)[C@H](CO)NC(=O)[C@H](Cc1c[nH]cn1)NC(=O)[C@H](CCCNC(=N)N)NC(=O)[C@H](CC(C)C)NC(=O)[C@H](Cc1ccccc1)NC(=O)[C@H](CCC(=O)O)NC(=O)[C@H](C)NC(=O)[C@H](CC(C)C)NC(=O)[C@H](CCCNC(=N)N)NC(=O)[C@H](CCC(N)=O)NC(=O)[C@@H](NC(=O)[C@H](C)NC(=O)[C@@H]1CSSC[C@H](NC(=O)[C@@H](N)CCCCNC(=O)CC[C@H](NC(=O)CCCCCCCCCCCCCCCCCCC(=O)O)C(=O)O)C(=O)N[C@@H](CC(N)=O)C(=O)N[C@@H]([C@@H](C)O)C(=O)N[C@@H](C)C(=O)N[C@@H]([C@@H](C)O)C(=O)N1)[C@@H](C)O)C(=O)N1CCC[C@H]1C(=O)N[C@@H](CO)C(=O)N[C@@H](CO)C(=O)N[C@H](C(=O)N[C@@H](CC(N)=O)C(=O)N[C@H](C(=O)NCC(=O)N[C@@H](CO)C(=O)N[C@@H](CCCNC(=N)N)C(=O)N[C@H](C(=O)N[C@@H](Cc1ccc(O)cc1)C(N)=O)[C@@H](C)O)C(C)C)[C@@H](C)O
notes: synthetic analogue of human amylin; also called compound 51
B2: N^ε1-[(4S)-4-carboxy-4-(19-carboxynonadecanoylamino)butanoyl]-[His14,Arg17,Pro21,Pro27,Arg34]-h-amylin (peptide)
peptide: K([γGlu-C20 diacid])CNTATCATQRLAHFLRHSSPNFGAIPSSTNVGRNTY-NH2
modifications: disulfide 2-7; N-terminus assumed
SMILES: CC[C@H](C)[C@H](NC(=O)[C@H](C)NC(=O)CNC(=O)[C@H](Cc1ccccc1)NC(=O)[C@H](CC(N)=O)NC(=O)[C@@H]1CCCN1C(=O)[C@H](CO)NC(=O)[C@H](CO)NC(=O)[C@H](Cc1c[nH]cn1)NC(=O)[C@H](CCCNC(=N)N)NC(=O)[C@H](CC(C)C)NC(=O)[C@H](Cc1ccccc1)NC(=O)[C@H](Cc1c[nH]cn1)NC(=O)[C@H](C)NC(=O)[C@H](CC(C)C)NC(=O)[C@H](CCCNC(=N)N)NC(=O)[C@H](CCC(N)=O)NC(=O)[C@@H](NC(=O)[C@H](C)NC(=O)[C@@H]1CSSC[C@H](NC(=O)[C@@H](N)CCCCNC(=O)CC[C@H](NC(=O)CCCCCCCCCCCCCCCCCCC(=O)O)C(=O)O)C(=O)N[C@@H](CC(N)=O)C(=O)N[C@@H]([C@@H](C)O)C(=O)N[C@@H](C)C(=O)N[C@@H]([C@@H](C)O)C(=O)N1)[C@@H](C)O)C(=O)N1CCC[C@H]1C(=O)N[C@@H](CO)C(=O)N[C@@H](CO)C(=O)N[C@H](C(=O)N[C@@H](CC(N)=O)C(=O)N[C@H](C(=O)NCC(=O)N[C@@H](CCCNC(=N)N)C(=O)N[C@@H](CC(N)=O)C(=O)N[C@H](C(=O)N[C@@H](Cc1ccc(O)cc1)C(N)=O)[C@@H](C)O)C(C)C)[C@@H](C)O
notes: synthetic analogue of human amylin; also called compound 85
B3: N^ε1-[(4S)-4-carboxy-4-(19-carboxynonadecanoylamino)butanoyl]-[His14,Arg17,Pro21,Pro27,Pro31]-h-amylin (peptide)
peptide: K([γGlu-C20 diacid])CNTATCATQRLAHFLRHSSPNFGAIPSSTPVGSNTY-NH2
modifications: disulfide 2-7; N-terminus assumed
SMILES: CC[C@H](C)[C@H](NC(=O)[C@H](C)NC(=O)CNC(=O)[C@H](Cc1ccccc1)NC(=O)[C@H](CC(N)=O)NC(=O)[C@@H]1CCCN1C(=O)[C@H](CO)NC(=O)[C@H](CO)NC(=O)[C@H](Cc1c[nH]cn1)NC(=O)[C@H](CCCNC(=N)N)NC(=O)[C@H](CC(C)C)NC(=O)[C@H](Cc1ccccc1)NC(=O)[C@H](Cc1c[nH]cn1)NC(=O)[C@H](C)NC(=O)[C@H](CC(C)C)NC(=O)[C@H](CCCNC(=N)N)NC(=O)[C@H](CCC(N)=O)NC(=O)[C@@H](NC(=O)[C@H](C)NC(=O)[C@@H]1CSSC[C@H](NC(=O)[C@@H](N)CCCCNC(=O)CC[C@H](NC(=O)CCCCCCCCCCCCCCCCCCC(=O)O)C(=O)O)C(=O)N[C@@H](CC(N)=O)C(=O)N[C@@H]([C@@H](C)O)C(=O)N[C@@H](C)C(=O)N[C@@H]([C@@H](C)O)C(=O)N1)[C@@H](C)O)C(=O)N1CCC[C@H]1C(=O)N[C@@H](CO)C(=O)N[C@@H](CO)C(=O)N[C@H](C(=O)N1CCC[C@H]1C(=O)N[C@H](C(=O)NCC(=O)N[C@@H](CO)C(=O)N[C@@H](CC(N)=O)C(=O)N[C@H](C(=O)N[C@@H](Cc1ccc(O)cc1)C(N)=O)[C@@H](C)O)C(C)C)[C@@H](C)O
notes: synthetic analogue of human amylin; also called compound 62
B4: N^ε1-[(4S)-4-carboxy-4-(19-carboxynonadecanoylamino)butanoyl]-[His14,Arg17,Pro21,Pro27,His35]-h-amylin (peptide)
peptide: K([γGlu-C20 diacid])CNTATCATQRLAHFLRHSSPNFGAIPSSTNVGSHTY-NH2
modifications: disulfide 2-7; N-terminus assumed
SMILES: CC[C@H](C)[C@H](NC(=O)[C@H](C)NC(=O)CNC(=O)[C@H](Cc1ccccc1)NC(=O)[C@H](CC(N)=O)NC(=O)[C@@H]1CCCN1C(=O)[C@H](CO)NC(=O)[C@H](CO)NC(=O)[C@H](Cc1c[nH]cn1)NC(=O)[C@H](CCCNC(=N)N)NC(=O)[C@H](CC(C)C)NC(=O)[C@H](Cc1ccccc1)NC(=O)[C@H](Cc1c[nH]cn1)NC(=O)[C@H](C)NC(=O)[C@H](CC(C)C)NC(=O)[C@H](CCCNC(=N)N)NC(=O)[C@H](CCC(N)=O)NC(=O)[C@@H](NC(=O)[C@H](C)NC(=O)[C@@H]1CSSC[C@H](NC(=O)[C@@H](N)CCCCNC(=O)CC[C@H](NC(=O)CCCCCCCCCCCCCCCCCCC(=O)O)C(=O)O)C(=O)N[C@@H](CC(N)=O)C(=O)N[C@@H]([C@@H](C)O)C(=O)N[C@@H](C)C(=O)N[C@@H]([C@@H](C)O)C(=O)N1)[C@@H](C)O)C(=O)N1CCC[C@H]1C(=O)N[C@@H](CO)C(=O)N[C@@H](CO)C(=O)N[C@H](C(=O)N[C@@H](CC(N)=O)C(=O)N[C@H](C(=O)NCC(=O)N[C@@H](CO)C(=O)N[C@@H](Cc1c[nH]cn1)C(=O)N[C@H](C(=O)N[C@@H](Cc1ccc(O)cc1)C(N)=O)[C@@H](C)O)C(C)C)[C@@H](C)O
notes: synthetic analogue of human amylin; also called compound 66
B5: N^ε1-[(4S)-4-carboxy-4-(19-carboxynonadecanoylamino)butanoyl]-[His14,Arg17,Pro21,Pro27,His34]-h-amylin (peptide)
peptide: K([γGlu-C20 diacid])CNTATCATQRLAHFLRHSSPNFGAIPSSTNVGHNTY-NH2
modifications: disulfide 2-7; N-terminus assumed
SMILES: CC[C@H](C)[C@H](NC(=O)[C@H](C)NC(=O)CNC(=O)[C@H](Cc1ccccc1)NC(=O)[C@H](CC(N)=O)NC(=O)[C@@H]1CCCN1C(=O)[C@H](CO)NC(=O)[C@H](CO)NC(=O)[C@H](Cc1c[nH]cn1)NC(=O)[C@H](CCCNC(=N)N)NC(=O)[C@H](CC(C)C)NC(=O)[C@H](Cc1ccccc1)NC(=O)[C@H](Cc1c[nH]cn1)NC(=O)[C@H](C)NC(=O)[C@H](CC(C)C)NC(=O)[C@H](CCCNC(=N)N)NC(=O)[C@H](CCC(N)=O)NC(=O)[C@@H](NC(=O)[C@H](C)NC(=O)[C@@H]1CSSC[C@H](NC(=O)[C@@H](N)CCCCNC(=O)CC[C@H](NC(=O)CCCCCCCCCCCCCCCCCCC(=O)O)C(=O)O)C(=O)N[C@@H](CC(N)=O)C(=O)N[C@@H]([C@@H](C)O)C(=O)N[C@@H](C)C(=O)N[C@@H]([C@@H](C)O)C(=O)N1)[C@@H](C)O)C(=O)N1CCC[C@H]1C(=O)N[C@@H](CO)C(=O)N[C@@H](CO)C(=O)N[C@H](C(=O)N[C@@H](CC(N)=O)C(=O)N[C@H](C(=O)NCC(=O)N[C@@H](Cc1c[nH]cn1)C(=O)N[C@@H](CC(N)=O)C(=O)N[C@H](C(=O)N[C@@H](Cc1ccc(O)cc1)C(N)=O)[C@@H](C)O)C(C)C)[C@@H](C)O
notes: synthetic analogue of human amylin; also called compound 81

What follows are binders tested against T1, rat amylin receptor (rat calcitonin …) (assay: SPA competition with 125I-rat amylin, membranes of BHK cells with rat calcitonin receptor + rat RAMP3 (Assay VI)).

Binder | IC50
B1 | 0.523 nM
B2 | 3.14 nM
B3 | 0.42 nM
B4 | 0.581 nM
B5 | 1.42 nM

What follows are binders tested against T2, human calcitonin receptor (assay: ratio of binding IC50s: human calcitonin receptor over human amylin receptor (reference)).
Procedure, shortened: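 Scintillation proximity competition binding on cell membranes at 35 ng/μL with SPA beads, in 50 mM Hepes pH 7.4, 1 mM CaCl2, 5 mM MgCl₂, 0.1% OA, 0.02% Tween20. Incubated 120 min at 25° C with shaking. IC₅₀ from one-site competition fit.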

Binder | Ratio hCT/hAmylin binding
B1 | 37.5
B2 | 91.8
B3 | 63
B4 | 45.5
B5 | 87.2

The binders below were run against T3, rat calcitonin receptor (assay: SPA competition with 125I-calcitonin, membranes of BHK cells with rat calcitonin receptor (Assay VIII)).

Binder | IC50
B1 | 62 nM
B2 | 146 nM
B3 | 18 nM
B4 | 20.8 nM
B5 | 61.1 nM

The binders below were run against T3, rat calcitonin receptor (assay: ratio of binding IC50s: rat calcitonin receptor over rat amylin receptor (reference)).

Binder | Ratio rCT/rAmylin binding
B1 | 119
B2 | 46.5
B3 | 42.8
B4 | 35.8
B5 | 42.9
